Measured values reported in patent CN107383198A (ZONHON BIOPHARMA INST INC, dated 2017).

T1: 提取于人血浆的胱抑素C (native human cystatin C, HyTest) (human, UniProt P01034 27-146)
T1 construct: mature; also called CysC; 天然CysC蛋白
T1 sequence (looked up): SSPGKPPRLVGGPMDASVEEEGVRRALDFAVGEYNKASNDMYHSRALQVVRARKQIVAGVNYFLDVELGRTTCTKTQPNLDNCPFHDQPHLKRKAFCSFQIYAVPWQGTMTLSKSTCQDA


Tests used:
[1] = molecular target: T1, 提取于人血浆的胱抑素C (native human cystatin C, …); test: indirect ELISA, CysC (HyTest) coated at 1 μg/mL, hybridoma supernatant, HRP goat anti-mouse IgG
[2] = molecular target: T1, 提取于人血浆的胱抑素C (native human cystatin C, …); test: Western blot of native CysC (HyTest) with HRP-labelled scFv

| binding result [1] | binding result [2] | Binder |
| --- | --- | --- |
| binds |  | 抗体M12 (antibody secreted by hybridoma cell line M12) (antibody, V domains shown, Mouse monoclonal antibody tested as hybridoma culture supernatant and detected with HRP goat anti-mouse IgG) VH: QVQLQQPGSELVRPGTSVKLSCRASGYTFTSYWMHWVKQRHGQGLEWLGNVDPGSGTTNYEENFKTKGTLTVDTSSSTVYMHLSSLTSEDSAVYYCTAGFDYWGQGTTLTVSA VL: DIQMNQSPSSLSASLGDTITITCHASQNINVWLGWFQQKPENIPKLLIYKASTLHTGVPSRFSGSGSGTVFTLTISSPQPEDIATYYCQQGQTYPLTFGAGTKLEIK |
|  | binds | 单链抗体C12 (anti-human cystatin C scFv C12) (scFv, Used HRP-labelled in the Western blot and colloidal-gold-labelled in the test card; also called C12-scFv-(HIS)6; C12-HRP) scFv: QVQLQQPGSELVRPGTSVKLSCRASGYTFTSYWMHWVKQRHGQGLEWLGNVDPGSGTTNYEENFKTKGTLTVDTSSSTVYMHLSSLTSEDSAVYYCTAGFDYWGQGTTLTVSAGGGGSGGGGSGGGGSDIQMNQSPSSLSASLGDTITITCHASQNINVWLGWFQQKPENIPKLLIYKASTLHTGVPSRFSGSGSGTVFTLTISSPQPEDIATYYCQQGQTYPLTFGAGTKLEIK |
